For the assay, the target named is YAP-binding domain of human TEAD4, TEAD4 217-434 (human, UniProt Q15561 217-434, biotin (N-biotinylated Avi tag)). The experiment in a line: AlphaScreen or HTRF.
Sequence of YAP-binding domain of human TEAD4, TEAD4 217-434 (Q15561 217-434): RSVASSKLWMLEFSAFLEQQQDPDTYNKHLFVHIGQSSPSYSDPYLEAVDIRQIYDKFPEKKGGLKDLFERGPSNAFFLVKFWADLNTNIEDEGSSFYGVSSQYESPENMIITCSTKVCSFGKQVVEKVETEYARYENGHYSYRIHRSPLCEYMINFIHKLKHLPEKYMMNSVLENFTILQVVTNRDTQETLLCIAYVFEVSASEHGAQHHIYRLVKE

B1: YAP 60-100 (partner of TEAD4 in the TR-FRET assay) (peptide)
peptide: DSETDLEALFNAVMNPKTANVPQTVPMRLRKLPDSFFKPPE
In the case of B1, the binding result is “binds”.

These data come from PMC7784741 (Protein Science : A Publication of the Protein Society, 2020).
